Experimental data reported in patent US20160159910A1 (Genentech, published 2016).

Assays:
human B7-H4 [1] = molecular target: T1, human B7-H4 (human, UniProt Q7Z7D3 29-282); assay: Scatchard analysis, 125I-antibody radioligand cell binding on MX-1 tumor cells
T1 construct: On stably transfected 293 cells (recombinant) or on MX-1 / SKBR3 tumor cells (endogenous); the cell is named under assay; also called huB7-H4; hB7-H4
T1 sequence: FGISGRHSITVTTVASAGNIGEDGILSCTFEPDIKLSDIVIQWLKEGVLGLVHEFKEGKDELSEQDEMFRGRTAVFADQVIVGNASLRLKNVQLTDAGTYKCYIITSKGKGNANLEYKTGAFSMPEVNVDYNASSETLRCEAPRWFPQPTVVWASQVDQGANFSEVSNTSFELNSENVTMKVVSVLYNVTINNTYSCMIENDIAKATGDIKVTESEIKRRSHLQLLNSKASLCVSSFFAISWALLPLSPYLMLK
Procedure: (§1) Competition assay mixtures of 50 μL volume containing a fixed concentration of [I¹²⁵] labeled antibody and decreasing concentrations of serially diluted, unlabeled antibody were placed into 96-well plates. […] Cells were detached from the flask using Sigma Cell Dissociation Solution and were washed with binding buffer, which consisted of Dulbecco's Modified Eagle Medium (DMEM) with 1% bovine serum albumin (BSA), […] and 0.1% sodium azide. The washed cells were added to the 96 well plates at a density of 100,000 cells in 0.2 mL of binding buffer. The final concentration of the [I¹²⁵] labeled antibody in each well was ˜250 pM. The final concentration of the unlabeled antibody in the competition assay ranged from 1000 nM through ten 2-fold dilution steps to a 0 nM buffer-only assay. Competition assays were carried out in triplicate. Competition assays were incubated for 2 hours at room temperature. After the 2-hour incubation, the competition assays were transferred to a Millipore Multiscreen filter plate (Billerica, Mass.) and washed 4 times with binding buffer to separate the free from bound [I¹²⁵] labeled antibody. The filters were counted on a Wallac Wizard 1470 gamma counter (PerkinElmer Life and Analytical Sciences Inc.; Wellesley, Mass.). The binding data was evaluated using NewLigand software (Genentech), which uses the fitting algorithm of Munson and Robard to determine the binding affinity of the antibody (Munson and Robard 1980).

human B7-H4 [2] = molecular target: T1, human B7-H4; assay: Scatchard analysis, 125I-antibody radioligand cell binding on stably transfected 293 cells
Procedure: as §1

cynomolgus monkey B7-H4 [3] = molecular target: T2, cynomolgus monkey B7-H4 (cynomolgus monkey, UniProt Q7Z7D3 29-282 (human entry)); assay: as above
T2 construct: On stably transfected 293 cells; also called cyno B7-H4; recombinant cynomolgus monkey B7-H4
T2 chain: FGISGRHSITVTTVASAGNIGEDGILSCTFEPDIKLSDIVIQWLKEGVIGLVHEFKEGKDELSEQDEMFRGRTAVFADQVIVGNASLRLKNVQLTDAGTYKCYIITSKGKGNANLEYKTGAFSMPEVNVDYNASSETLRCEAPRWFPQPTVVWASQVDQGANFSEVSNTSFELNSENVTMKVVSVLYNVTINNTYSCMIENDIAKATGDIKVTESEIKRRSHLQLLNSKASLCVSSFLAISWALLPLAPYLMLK
Procedure: as §1

mouse B7-H4 [4] = molecular target: T3, mouse B7-H4 (mouse, UniProt Q7TSP5 29-283); assay: as above
T3 construct: On stably transfected 293 cells; also called muB7-H4; recombinant mouse B7-H4
T3 sequence: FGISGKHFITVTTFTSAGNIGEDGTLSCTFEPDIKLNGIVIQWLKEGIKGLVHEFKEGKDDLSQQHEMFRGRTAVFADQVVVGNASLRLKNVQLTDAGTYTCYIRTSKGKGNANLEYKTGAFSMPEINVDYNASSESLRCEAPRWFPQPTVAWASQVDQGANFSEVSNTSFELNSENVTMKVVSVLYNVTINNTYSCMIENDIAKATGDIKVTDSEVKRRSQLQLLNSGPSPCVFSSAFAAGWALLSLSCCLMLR
Procedure: as §1

rat B7-H4 [5] = molecular target: T4, rat B7-H4 (rat, UniProt Q501W4 29-282); assay: as above
T4 construct: On stably transfected 293 cells; also called recombinant rat B7-H4
T4 sequence: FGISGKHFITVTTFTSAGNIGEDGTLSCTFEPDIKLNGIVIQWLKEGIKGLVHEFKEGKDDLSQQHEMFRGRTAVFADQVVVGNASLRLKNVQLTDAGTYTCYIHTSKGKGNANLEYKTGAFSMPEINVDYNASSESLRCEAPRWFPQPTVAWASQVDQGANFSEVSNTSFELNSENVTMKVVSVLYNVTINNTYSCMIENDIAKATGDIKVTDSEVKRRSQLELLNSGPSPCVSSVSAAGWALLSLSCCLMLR
Procedure: as §1

mouse B7-H4 [6] = molecular target: T3, mouse B7-H4; assay: FACS titration on 293 cells expressing recombinant mouse B7-H4 (panel '293-mouse B7-H4', lower block), geometric mean fluorescence
Procedure: (§2) The fluorescent signal was acquired with a BD FACS Calibur and EC₅₀ values were determined with the Graph Pad program Prism 4.

human B7-H4 [7] = molecular target: T1, human B7-H4; assay: FACS titration on MX-1 tumor cells, endogenous human B7-H4 (panel 'MX-1 tumor cell line', lower block), geometric mean fluorescence
Procedure: as §2

cynomolgus monkey B7-H4 [8] = molecular target: T2, cynomolgus monkey B7-H4; assay: FACS titration on 293 cells expressing recombinant cynomolgus B7-H4 (panel '293-cyno B7-H4', lower block), geometric mean fluorescence
Procedure: as §2

human B7-H4 [9] = molecular target: T1, human B7-H4; assay: FACS titration on 293 cells expressing recombinant human B7-H4 (panel '293-human B7-H4', lower block), Dylight-650 goat anti-human IgG, geometric mean fluorescence
Procedure: as §2

[10] = molecular target: T5, human B7-H4 S114A glycosylation mutant (human, UniProt Q7Z7D3 29-282); assay: FACS on 293 cells transfected with S114A human B7-H4 (glycosylation independence)
T5 construct: Full-length human B7-H4 membrane construct with S114 changed to alanine to prevent N-linked glycosylation at N112-S114; transiently expressed on 293 cells; also called mutated S114A human B7-H4; recombinant human B7-H4 S114A
T5 sequence: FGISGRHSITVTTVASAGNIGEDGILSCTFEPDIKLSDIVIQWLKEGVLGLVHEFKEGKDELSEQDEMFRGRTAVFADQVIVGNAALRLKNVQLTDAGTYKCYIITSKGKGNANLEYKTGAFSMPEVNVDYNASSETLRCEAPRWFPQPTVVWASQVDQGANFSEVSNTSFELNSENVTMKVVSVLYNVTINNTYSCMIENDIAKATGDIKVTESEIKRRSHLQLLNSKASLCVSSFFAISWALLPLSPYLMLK

human B7-H4 [11] = molecular target: T1, human B7-H4; assay: Scatchard analysis, radioligand cell binding on MX-1 cells (endogenous human B7-H4)
Procedure: as §1, with “After the 2-hour incubation, the competition assays were transferred to a Millipore Multiscreen filter plate (Billerica, Mass.) and washed 4 times with binding buffer to separate the free from bound [I¹²⁵] labeled antibody.” left out

human B7-H4 [12] = molecular target: T1, human B7-H4; assay: Scatchard analysis, radioligand cell binding on 293 cells expressing recombinant B7-H4
Procedure: as §1

cynomolgus monkey B7-H4 [13] = molecular target: T2, cynomolgus monkey B7-H4; assay: as above
Procedure: as §1

mouse B7-H4 [14] = molecular target: T3, mouse B7-H4; assay: as above
Procedure: as §1

rat B7-H4 [15] = molecular target: T4, rat B7-H4; assay: as above
Procedure: as §1

B1: chimeric antibody ch1D11 (antibody, human IgG1, V domains shown)
VH: QVQLQQSGAELVRPGTSVKMSCKASGYTFTSYWIGWAKQRPGHGFEWIGDIYPGGGYTNYNEKFKGKATLTADKSSSTAYMQFSSLTSEDSAIYYCARLDGSSYRGAMDSWGQGTSITVSS
VL: DIQMTQSPSSLSASLGGKVTITCKASQGFNKYVAWYQHKPGQCPRLLIHYTSTLQPGIPARFSGSGSGRDYSFSISNLEPEDSATYFCLQYGNLLYAFGGGTKLEIKR
notes: also called parental 1D11 antibody; antibody 1D11
A Kd (human B7-H4 [1]) of 7.8 nM, a Kd (human B7-H4 [2]) of 6.1 nM and a Kd (cynomolgus monkey B7-H4 [3]) of 4.1 nM were found for B1 in this work. For the same binder, the Kd (mouse B7-H4 [4]) was 9.4 nM, the Kd (rat B7-H4 [5]) was 4.1 nM and the EC50 (mouse B7-H4 [6]) was 0.38 µg/mL. The EC50 (human B7-H4 [7]) was 0.67 µg/mL, the EC50 (cynomolgus monkey B7-H4 [8]) was 0.66 µg/mL and the EC50 (human B7-H4 [9]) was 0.96 µg/mL.

B2: ch1D11, slightly modified version with light chain C43G (antibody, V domains shown)
VH: QVQLQQSGAELVRPGTSVKMSCKASGYTFTSYWIGWAKQRPGHGFEWIGDIYPGGGYTNYNEKFKGKATLTADKSSSTAYMQFSSLTSEDSAIYYCARLDGSSYRGAMDSWGQGTSITVSS
VL: DIQMTQSPSSLSASLGGKVTITCKASQGFNKYVAWYQHKPGQGPRLLIHYTSTLQPGIPARFSGSGSGRDYSFSISNLEPEDSATYFCLQYGNLLYAFGGGTKLEIKR
notes: Human IgG1 / human kappa chimeric antibody; Dylight-488 or -650 labeled in the assay; also called ch1D11 (C43G)
B2 was tested, and the “fold binding over the isotype control” value [10] was 100 fold.

B3: humanized 1D11.v1.9 (antibody, V domains shown)
VH: EVQLVQSGAEVKKPGASVKVSCKASGYTFTSYWIGWVRQAPGQGLEWIGDIYPGGGYTNYNEKFKGRVTITRDTSTSTAYLELSSLRSEDTAVYYCARLDGSSYRGAMDSWGQGTLVTVSS
VL: DIQMTQSPSSLSASVGDRVTITCKASQGFNKYVAWYQQKPGKAPKLLIYYTSTLQPGVPSRFSGSGSGRDYTLTISSLQPEDFATYYCLQYGNLLYAFGQGTKVEIKR
notes: also called hu1D11.v1.9; h1D11.v1.9
An EC50 (mouse B7-H4 [6]) of 0.36 µg/mL was found for B3 in this work.

B4: hu1D11.v1.9 varC2 (antibody, V domains shown)
VH: EVQLVQSGAEVKKPGASVKVSCKASGYTFTSYWIGWVRQAPGQGLEWIGDIYPGGGYTNYNEKFKGRVTITRDTSTSTAYLELSSLRSEDTAVYYCARLAGSSYRGAMDSWGQGTLVTVSS
VL: DIQMTQSPSSLSASVGDRVTITCKASQGFNKYVAWYQQKPGKAPKLLIYYTSTLQPGVPSRFSGSGSGRDYTLTISSLQPEDFATYYCLQYGDLLYAFGQGTKVEIKR
notes: IgG1 / kappa; also called h1D11v1.9_VarC2; h1D11v1.9 variant C2
A Kd (human B7-H4 [11]) of 2 nM, a Kd (human B7-H4 [12]) of 0.9 nM and a Kd (cynomolgus monkey B7-H4 [13]) of 1 nM were found for B4 in this work. For the same binder, the Kd (mouse B7-H4 [14]) was 2.1 nM and the Kd (rat B7-H4 [15]) was 1.2 nM.
